Laboratory results: publication PMC9812585
Each block holds one substance with its values, some of them ahead of it.

How the values were obtained:
[1] = biological target: human GC-A (membrane guanylate cyclase A, natriuretic peptide receptor) (human) (UniProt P16066)
[2] = biological target: human GC-B (membrane guanylate cyclase B, natriuretic peptide receptor) (human) (UniProt P20594)
[3] = biological target: human GC-B (membrane guanylate cyclase B, natriuretic peptide receptor) (human) (UniProt P20594); remark: listed apart in the source
[4] = biological target: human GC-A (membrane guanylate cyclase A, natriuretic peptide receptor) (human) (UniProt P16066); remark: listed apart in the source

Chain of UniProt P20594 (P20594 23-1047): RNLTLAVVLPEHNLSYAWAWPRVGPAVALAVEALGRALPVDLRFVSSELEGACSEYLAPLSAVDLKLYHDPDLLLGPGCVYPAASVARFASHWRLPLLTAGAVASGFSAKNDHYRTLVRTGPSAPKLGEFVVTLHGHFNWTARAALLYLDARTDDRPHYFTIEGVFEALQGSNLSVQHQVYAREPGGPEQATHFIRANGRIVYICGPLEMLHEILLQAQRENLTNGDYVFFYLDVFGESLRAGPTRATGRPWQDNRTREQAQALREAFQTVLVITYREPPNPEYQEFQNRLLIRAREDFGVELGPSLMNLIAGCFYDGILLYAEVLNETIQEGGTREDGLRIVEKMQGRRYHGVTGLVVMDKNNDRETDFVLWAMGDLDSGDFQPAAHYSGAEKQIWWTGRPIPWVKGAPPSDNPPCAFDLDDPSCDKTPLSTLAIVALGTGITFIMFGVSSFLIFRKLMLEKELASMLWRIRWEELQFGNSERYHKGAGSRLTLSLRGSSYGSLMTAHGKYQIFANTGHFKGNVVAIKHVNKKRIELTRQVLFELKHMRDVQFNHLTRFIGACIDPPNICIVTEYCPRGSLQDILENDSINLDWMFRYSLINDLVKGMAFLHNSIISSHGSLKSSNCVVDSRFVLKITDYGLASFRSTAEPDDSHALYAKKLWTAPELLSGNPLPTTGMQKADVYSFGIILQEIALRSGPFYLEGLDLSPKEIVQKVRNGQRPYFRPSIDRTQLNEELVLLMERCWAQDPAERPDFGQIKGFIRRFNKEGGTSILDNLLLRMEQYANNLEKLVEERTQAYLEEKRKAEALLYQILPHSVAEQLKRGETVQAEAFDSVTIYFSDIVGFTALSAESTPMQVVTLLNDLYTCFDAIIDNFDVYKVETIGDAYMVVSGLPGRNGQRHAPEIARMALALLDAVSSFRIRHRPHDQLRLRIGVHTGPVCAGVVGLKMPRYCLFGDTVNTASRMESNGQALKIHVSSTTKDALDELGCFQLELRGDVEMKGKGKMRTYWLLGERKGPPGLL
Chain of UniProt P16066 (P16066 33-1061): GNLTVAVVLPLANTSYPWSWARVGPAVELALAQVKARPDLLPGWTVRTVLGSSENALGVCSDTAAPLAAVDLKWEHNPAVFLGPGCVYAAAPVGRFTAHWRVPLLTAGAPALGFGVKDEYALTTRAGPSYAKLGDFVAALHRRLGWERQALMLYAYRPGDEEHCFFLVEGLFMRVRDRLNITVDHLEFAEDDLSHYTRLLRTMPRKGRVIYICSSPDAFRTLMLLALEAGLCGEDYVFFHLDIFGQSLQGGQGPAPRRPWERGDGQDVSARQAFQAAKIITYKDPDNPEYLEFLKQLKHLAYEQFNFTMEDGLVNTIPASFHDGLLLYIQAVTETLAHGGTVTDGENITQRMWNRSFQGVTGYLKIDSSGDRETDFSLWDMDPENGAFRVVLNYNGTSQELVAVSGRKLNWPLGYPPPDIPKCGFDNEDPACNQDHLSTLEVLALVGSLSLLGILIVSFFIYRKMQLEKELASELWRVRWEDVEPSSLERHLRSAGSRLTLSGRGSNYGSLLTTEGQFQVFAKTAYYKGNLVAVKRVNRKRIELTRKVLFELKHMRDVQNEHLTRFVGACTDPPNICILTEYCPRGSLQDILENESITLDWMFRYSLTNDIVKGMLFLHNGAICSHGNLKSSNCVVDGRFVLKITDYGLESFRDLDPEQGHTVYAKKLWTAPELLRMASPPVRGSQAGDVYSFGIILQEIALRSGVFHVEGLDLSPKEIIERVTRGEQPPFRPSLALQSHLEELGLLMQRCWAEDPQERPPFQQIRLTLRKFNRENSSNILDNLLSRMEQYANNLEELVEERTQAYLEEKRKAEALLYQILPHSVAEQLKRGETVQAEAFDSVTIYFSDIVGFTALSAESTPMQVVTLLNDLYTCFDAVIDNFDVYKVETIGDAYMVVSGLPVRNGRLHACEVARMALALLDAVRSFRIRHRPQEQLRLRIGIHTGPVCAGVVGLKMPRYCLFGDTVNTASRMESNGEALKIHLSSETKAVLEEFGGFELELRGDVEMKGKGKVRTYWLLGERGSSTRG

stimulation of cGMP production in HEK293T cell membranes with increasing ANP, saturation above 4 μM [1]: 10 fold
Substance: human atrial natriuretic factor (1-28) (peptide)

stimulation of cGMP production in HEK293T cell membranes with increasing CNP, saturation above 4 μM [2]: 10 fold
Substance: human c-type natriuretic peptide (1-53)

IC50 of inhibition of guanylate cyclase activity (cGMP synthesis) of GC-B in HEK293T cell membranes activated by 2 μM CNP, increasing RD3; inhibition not complete at 0.5-1 μM RD3 [3]: 29 nM
IC50 of inhibition of guanylate cyclase activity (cGMP synthesis) of GC-A in HEK293T cell membranes activated by 2 μM ANP, increasing RD3; inhibition not complete at 0.5-1 μM RD3 [4]: 24 nM
Substance: retinal degeneration protein 3 (RD3) (from UniProt Q7Z3Z2 1-195) (natural protein)
